According to the nanobody polyreactivity screen of Harvey et al. (2022):

Assay: yeast display, Sf9 membrane polyspecificity reagent, FACS + sequencing; frameworks hold sequencing errors
Summary of the method: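 In a synthetic yeast display library (Saccharomyces cerevisiae BJ5465), nanobody expression was induced with galactose for 36–48 hours. FACS gates were set low and high (top ~1%) using anti-HA fluorescence for expression and streptavidin fluorescence for binding of the Sf9 membrane reagent. Each polyreactivity label is drawn from the gate of origin.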

| Sequence | polyreactivity (PSR sort gate) |
| --- | --- |
| QFQLVESGGGLVQAGGSLRLSCAASGITFVYYAMGGYRQAPGKERELVAAISRGGTSTYYADSVKGRFTISRDNAKNTVYLHMNSLKPEDTAVYYCNARYPKSYRTNYYYWGQGTQVTVSS | high polyreactivity |
| QFQLVESGGGLVQAGGSLRLSCAASGLIFAYNAKGWSRQATGKERELVAAITGGGDGTYYADSVKGRFTISRDNAKYTVYLQMNSLKPEDTAVYYCAADYKYVGSEYGYWGQGTQVTVSS | low polyreactivity |
| QFQLVESGGGLVQAGGSLRLSCAASGLTFVAYAMGWYRQAPGKEMELVAAITRRGGSTYYADSVKGRFTISRDNEKNPVSLQMNSLKPEDTAVYYCAAEGWYSRNPGFDYWGQGTQVTVSS | high polyreactivity |
| QFQLVESGGGLVQAGGSLRLSCAASGRIFCRYAMGWYRQAPGKETELVPVISARGARTYYEDSVKGRFTISRDNAKYTVYLQMNSLKPEDTAVYYCNKVGVLSGYYYPHASGDYWGQGTQVTVSS | high polyreactivity |
| QFQLVESGGGLVQAGGSLRLSCAASGRIFDFYAMGWYREAPGKERELVAAISWRGGSTYYAHSVKGRFTISRDNAKNTVYLQMNSLKPEDTAVYYCATRFGPRYYWGQGTQVTVSS | low polyreactivity |
| QFQLVESGGGLVQAGGSLRLSCAASGRIFDTYVMRWYRQAPGKERDLVAAISGSGGSTYYAYSVKGRFTISRDNAKNTVYLQMNSLKPEDTEVYYCAAARRYYAYRYDYWGQGTQVTVSS | high polyreactivity |
| QFQLVESGGGLVQAGGSLRLSCAASGRIFGDNAMGWYRQAPGKERELVADIDSGGRTNYADSVKGRFTISRDNAKNTVYLQMNSLKPEDTAVYYCARDDIAYLVEYDYWGQGTQVTVSS | low polyreactivity |
| QFQLVESGGGLVQAGGSLRLSCAASGRIFIIYAMGWYRQAPGKERELVAAINRGATTNFADSVKGRFTISRDNAKNTVYLQMNSLKPEDTAVYYCAACSGPSLSRFLRYANDYWGQGTQVTLSS | high polyreactivity |
| QFQLVESGGGLVQAGGSLRLSCAASGRIFLSYAMGWYRQAPGKERELVAAITLSGGSTYYADSVKGRFTISRDNAKNTVSLQMNSLKPEVTGVYYCAADAWFSLRYAPRSYAYGYWGQGTQVTVSS | low polyreactivity |
| QFQLVESGGGLVQAGGSLRLSCAASGRIFPLYVMGWYRQAPGKERELVAAMSRSGSRTYYADSVKGRFTISRDNAKNTVYFQMNSLKPEDTAVYYCAAVPDGTTRYDGDYWGQGTQVTVSS | high polyreactivity |
| QFQLVESGGGLVQAGGSLRLSCAASGRIFYGYAMVWYRQAPGKERDLVAAISWRGGRTYYADSVKGRFTISRDNAKNTVYLQMNSLKPEDTAVYYCNKVFPPQGQLRNMYYWGQGTQVTVSS | high polyreactivity |
| QFQLVESGGGLVQAGGSLRLSCAASGRIFYSYAIGWYRQAPGKERELVAAINWSSVRTYYADSVKGRFTISRDNAKNTVYLQMNSLKPEDTAVYYWNAYSTEWGRYDYWGQGTQVTVSS | high polyreactivity |
| QFQLVESGGGLVQAGGSLRLSCAASGRIFYYYAMGWYRQAPGKERELVAAITRGGSTYADSVKGRFTISRDNAKNTVYLQMNSLKPEDTAVYYCAATYWYWDFRWMDYWGQGTQVTVSS | high polyreactivity |
| QFQLVESGGGLVQAGGSLRLSCAASGRISYAYAMGWYRQAPGKEREFVAAISGSGGSTYYADSVKGRFTISRDNAKKTVYLQMNSLKPEDTAVYYCDAGSGEYYGGKRYYWGQGTQVTVSS | low polyreactivity |
| QFQLVESGGGLVQAGGSLRLSCAASGRIYGLYAKGWYRQAPGKERELVAAISSTGGRTFYADSVKGRFTISRDNAKNTVYFQMNSLKPDDTAVYYCAAYRYSRYRQRYNYCGQGTQVTVSS | high polyreactivity |
| QFQLVESGGGLVQAGGSLRLSCAASGRTFGGYAMGWYRQAAGKVREFVAALTYRGASTYYSDSVKGRFTISRDNAKNTVYFQMNSLKPEDTAVYYCAAEGSIKYFVGYTWGYNYWGQGTQVTVSS | low polyreactivity |
| QFQLVESGGGLVQAGGSLRLSCAASGRTFGRYAMGRDRPAPGKERELVAAINSGGSTYYADSVKGRFTISRDNAKNTVYLQMMSLKPEDTAVYYCDTQWTWKLGYWGQGTQVTVSS | high polyreactivity |
| QFQLVESGGGLVQAGGSLRLSCAASGSIFLSNAMGWYRQAPGKERELVADIDWTGGDTYYADSVKGRFRISRDNAKNTVYLQMNSLKREDTAVYYCAADYGYRNLRTEYGYWGQGTQVTVSS | low polyreactivity |
| QFQLVESGGGLVQAGGSLRLSCAASGSIFRAYAMGRYRQATGKERELVADISRSGGSTYYADSVKGRFTISRDNAKNTVYLQMNSLTQEVTAVYYCAAVFYLYSNLYGEYDYWGQGTQVTVSS | low polyreactivity |
| QFQLVESGGGLVQAGGSLRLSCAASGSIFRENAMGWYRQAPGKEMELVAAIYVRDGDTFYADSVKGRFTISRDNAKNTVYLQMNSLKPEDTAVYYCAADQQKWYTGYDYWGQCTQVTVSS | low polyreactivity |
| QFQLVESGGGLVQAGGSLRLSCAASGSIFSINAMGWYRQAPGKERELVAVISWIGGNTYYADSVKGRFTISRDNAKNTVYLQMNSLKPEDTAVYYCAVATGPVSYRRYYWGQGTQVTVSS | high polyreactivity |
| QFQLVESGGGLVQAGGSLRLSCAASGSISDIYAMGWYRQAPGKERELVASISSGGITNYADSVKGRFTISRDNAKNTVYLQMNSLKPEDTAVYYCAKDRYHISFFYQMEYWGQGTQVTVSS | low polyreactivity |

| Sequence | polyreactivity (PSR sort gate) |
| --- | --- |
| QFQLVESGGGLVQAGGSLRLSCAASGSSFTVYAMGWYRQAPGKETELVAAISYVGGSTYYAASVKGRFTISRDNAKNTVYLQMNSLKPEDTAVYYCAADPYYSYGYYHAHGRDVGYWGQGTQVTVSS | low polyreactivity |
| QFQLVESGGGLVQAGGSLRLSCAASGSTFDPYAMGWDTQAPGKEREFLADIDSSVGSTFYADSVKGRFTISRDNPKNTVYLQMNSLKPEDTAVYYCAAASRVAKGRWRLYDYWGQGTQVTVSS | high polyreactivity |
| QFQLVESGGGLVQAGGSLRLSCAASGSTFFVYDMGWYRQATGKEGELVAAISISDGGTYYADSVKGRFTISRDNAKNTVYLQMKSLKPEDTAVYYCAADYSERYFPGYDYWGQGTLVTVSS | low polyreactivity |
| QFQLVESGGGLVQAGGSLRLSCAASGSTFGSYAMGWYRQAPAKESELVAAITASGGSTNYADSVKGRFTISRDNAKNTVYLQMNSLKPEDTAVYYCAADTTYSPLSIEYDYWGQGTQVTVSS | low polyreactivity |
| QFQLVESGGGLVQAGGSLRLSCAASGSTFVPNTMGWYRQAPGIERELVAAITYSGGSTYYADSVKGRFTISRDNAKNTVYLQMHSLKPEDTAVYYCAAEGTTWYYDMDYWGQGTQVTVSS | low polyreactivity |
| QFQLVESGGGLVQAGGSLRLSCAASGSTIPRNAMGWYRQAPGKERELVAVITGSGGSTYYADSVKGRFTISRDNAKNTVYLQMNSLKPEDTAVYYCAAKYRFYGFDYWGQGTQLTVSS | high polyreactivity |
| QFQLVESGGGLVQAGGSLRLSCAASGSTLAPYVMGWYRQAPGKDRELVAVISTRTGRPYYADSVKGRFTISRDNAKNTVYLQMNSLKPEDTGVYYCAARKKTTYRDWGRHDYWGQGTQVTVSS | high polyreactivity |
| QFQLVESGGGLVQAGGSLRLSCAASGYTFGNYAMGWYRPAPGNVRVLVAGISWSGGSTYYADSVKGRFTISRDNAKNTVYLQMNSLKPEDTAVYYCATRVQGYHNGWYAYLGQGTQVTVSS | high polyreactivity |
| QFQLVESGGGLVQAGGSLRLSCAASGYTFGQYDMGWYRQAPGKERELVAAISTGGVSTYYADSVKGRFTISRDNAKNTVYLQMNSLKPEDTAVYYCATTPYVRYDYWGQGTQVTVSS | low polyreactivity |
| QFQLVESGGGLVQAGGSLRLSCASSGSIFWYYAMGWYRQAPGKERELVATITSGGRTDYADSVKGRFTISRDNAKNTVYLQMNSLKPEDTAVYFCAAGPRWRPRSYDYWGHGTQVTVSS | high polyreactivity |
| QFQLVESGGGLVQAGGSLRLSCASSGSIFYGNAMVCYRQAPGKERELVADIRWSGGSTYYADSVKGRFTISRDNAKNTVYLQMNSLKPEDTAVYYCAVRSPYRWRYASRYHEYDYWGQGTQVTVSS | low polyreactivity |
| QFQLVESGGGLVQAGVSLRLSCAASGSIILVYAMGLYIQATGKETELVPAITTRGSSTYYADSVKGRFKISRDNAKNTYYLQMNSLKPEDTEVYYCAKEFPGTQGRGVTGFSGTALGYWGQGTKVTVSS | low polyreactivity |
| QFQLVESGGGLVQARGSLRLSCAASGITFKEYAMGWYRQAPGTERELVAAISKSGGSTYYADSVKGRFTISRDNAKNTVYLQMTSLKPEDTAVYYCAADYAEYEYGDYYWGQGTQVTVSS | low polyreactivity |
| QFQLVESGGGLVQEGGSLRLSCAASGRTLAKNAMGWYRQAPGKEREFVAAISRRGGSTYYADSVKGRFTISRDYAKYTVYLQLNSLKREDTAVYYCARASRQGYYQLSYDEFDYWGQGTQVTVSS | high polyreactivity |
| QFQLVESGGRLVQAGGSLRLSCAASGFIFWYNAMGWYRQAPGKEREFVAAISSGGSTTYADSVKGRFTISRDNAKNTVYLQMNSLKPEDTAVSYCAAGSYDYDYWGQGTQVTVSS | low polyreactivity |
| QFQLVESGRGLVQAGGGLRLSCAASGLTFGYYTMGWYRQAPGKERELVAAINYSGGSTYYADSVKGRFTISRDNAKNTVYLQMNCLKPEDSAVYYCAAEGPVYTTYEYWGQGNQVTVSS | low polyreactivity |
| QFQLVESGRGLVQAGGSLRLSCAASGNTFGPYAMGWYRQAPGKERELVAAISSGGSTNYADSVKGRFTISRDNAKNTVYLQMNSLKPEDTAVYYCAAPYRSYVRYKYDYWGQGTLVTVSS | low polyreactivity |
| QFQLVESGRGLVQAGGSLRLSCAASGSIFYSYAMGRYRQAPGKEREFVATISDSSGSTYYADSVKGRFTISRDNAKNTVYLQMNSMIPEDTAVYYCATTDSYGYYGYGDWGQGTQVTVSS | low polyreactivity |
| QFQLVESRGGLVQAGGSLRLSCAASGFIFTHYAMGWYRQAPGKERELVAAITRRGGDTHYADSVKGRFTISRDNPKNTVYLQMNSLKPEDTAVYYSNAKRYSWGYYPAFDYWGHGTQVTVSS | high polyreactivity |
| QFQLVESVGGLVQAGGILRLSCAASGRNYNSYAMGWYRKAPGKERELVAAISRTGASTYYSDSVKGRFTISRDNAKNTVYLQMNSLKPEDTAVYYCAADANSGDGYYWGQGTQVTVSS | high polyreactivity |
| QFQLVQSGGGLVQAGGSLRLSCAASGFILEPNAVGWYRQAPGKERELVATISYSGGGTYYADSVKGRFTISRDNAKNTVYLQLNCLKPEDTAVYYCAVDWYYYVWWYDYWGQGTHVTVSS | high polyreactivity |
